Laboratory results published in IntAct's records for PubMed 32851177.

B1: Osteopetrosis-associated transmembrane protein 1 (Homo sapiens), Q86WC4 (parent)
chain: MEPGPTAAQRRCSLPPWLPLGLLLWSGLALGALPFGSSPHRVFHDLLSEQQLLEVEDLSLSLLQGGGLGPLSLPPDLPDLDPECRELLLDFANSSAELTGCLVRSARPVRLCQTCYPLFQQVVSKMDNISRAAGNTSESQSCARSLLMADRMQIVVILSEFFNTTWQEANCANCLTNNSEELSNSTVYFLNLFNHTLTCFEHNLQGNAHSLLQTKNYSEVCKNCREAYKTLSSLYSEMQKMNELENKAEPGTHLCIDVEDAMNITRKLWSRTFNCSVPCSDTVPVIAVSVFILFLPVVFYLSSFLHSEQKKRKLILPKRLKSSTSFANIQENSN
partner: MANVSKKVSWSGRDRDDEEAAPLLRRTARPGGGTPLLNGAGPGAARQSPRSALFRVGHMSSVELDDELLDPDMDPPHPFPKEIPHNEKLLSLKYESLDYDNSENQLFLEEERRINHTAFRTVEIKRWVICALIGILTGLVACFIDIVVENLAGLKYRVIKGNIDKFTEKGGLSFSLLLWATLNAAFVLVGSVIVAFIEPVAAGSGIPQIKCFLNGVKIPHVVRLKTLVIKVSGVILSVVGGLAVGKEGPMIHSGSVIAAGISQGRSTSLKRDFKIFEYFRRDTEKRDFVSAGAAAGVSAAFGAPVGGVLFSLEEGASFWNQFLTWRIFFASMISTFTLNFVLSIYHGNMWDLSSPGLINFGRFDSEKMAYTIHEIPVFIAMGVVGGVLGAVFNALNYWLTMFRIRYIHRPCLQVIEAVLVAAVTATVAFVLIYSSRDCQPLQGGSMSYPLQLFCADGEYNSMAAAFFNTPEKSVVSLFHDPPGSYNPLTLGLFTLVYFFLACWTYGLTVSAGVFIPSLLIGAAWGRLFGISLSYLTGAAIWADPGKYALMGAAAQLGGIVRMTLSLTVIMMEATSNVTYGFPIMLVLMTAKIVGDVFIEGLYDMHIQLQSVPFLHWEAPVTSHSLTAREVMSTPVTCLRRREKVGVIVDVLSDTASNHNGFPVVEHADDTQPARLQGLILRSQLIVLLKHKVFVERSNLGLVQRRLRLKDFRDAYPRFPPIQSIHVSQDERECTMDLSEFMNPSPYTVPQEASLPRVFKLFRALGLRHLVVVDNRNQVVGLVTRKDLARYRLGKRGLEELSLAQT

Variants of: B1
Conditions: with clcn7_human CLCN7, P51798

Variant | effect of a mutation on the interaction
Y300A | decreasing interaction strength
